Experimental data published in patent US20190016828A1 (Hoffmann-La Roche, published 2019).

How the values were obtained:
[1] = molecular target: T1, human neonatal Fc-receptor (FcRn) (human, UniProt P55899 24-297; P61769 21-119); experiment: FcRn affinity chromatography, anti-IGF-1R KiH antibody
T1 construct: also called human FcRn; huFcRn

[2] = molecular target: T1, human neonatal Fc-receptor (FcRn); experiment: SPR (BIAcore), FcRn immobilized on a CM5 chip, pH 6.0, 200 nM sample

T1 sequence (P55899 24-297 limits assumed, chain 1 of 2): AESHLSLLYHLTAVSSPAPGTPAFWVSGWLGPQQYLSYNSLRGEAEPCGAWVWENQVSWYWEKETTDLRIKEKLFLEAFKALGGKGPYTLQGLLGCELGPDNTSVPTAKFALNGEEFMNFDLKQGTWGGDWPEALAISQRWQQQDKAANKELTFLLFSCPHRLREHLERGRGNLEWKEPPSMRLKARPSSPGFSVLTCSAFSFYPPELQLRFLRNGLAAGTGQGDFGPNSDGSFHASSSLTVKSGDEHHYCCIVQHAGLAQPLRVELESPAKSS
T1 sequence (P61769 21-119 limits assumed, chain 2 of 2): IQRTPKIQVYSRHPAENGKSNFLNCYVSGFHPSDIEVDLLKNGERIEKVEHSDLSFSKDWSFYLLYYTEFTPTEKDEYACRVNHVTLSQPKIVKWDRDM

B1: IGF-1R 0034 (antibody, human IgG1, kappa)
light: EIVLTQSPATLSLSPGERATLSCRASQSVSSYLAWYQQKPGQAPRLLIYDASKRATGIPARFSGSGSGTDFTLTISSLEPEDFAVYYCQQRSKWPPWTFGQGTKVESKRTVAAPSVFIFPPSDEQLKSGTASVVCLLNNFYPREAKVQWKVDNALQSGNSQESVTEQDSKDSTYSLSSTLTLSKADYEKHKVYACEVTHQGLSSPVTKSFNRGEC
heavy 1: not shown
heavy 2: QVELVESGGGVVQPGRSQRLSCAASGFTFSSYGMHWVRQAPGKGLEWVAIIWFDGSSTYYADSVRGRFTISRDNSKNTLYLQMNSLRAEDTAVYFCARELGRRYFDLWGRGTLVSVSSASTKGPSVFPLAPSSKSTSGGTAALGCLVKDYFPEPVTVSWNSGALTSGVHTFPAVLQSSGLYSLSSVVTVPSSSLGTQTYICNVNHKPSNTKVDKKVEPKSCDKTHTCPPCPAPELLGGPSVFLFPPKPKDTLMASRTPEVTCVVVDVSHEDPEVKFNWYVDGVEVHNAKTKPREEQYNSTYRVVSVLTVLAQDWLNGKEYKCKVSNKALPAPIEKTISKAKGQPREPQVCTLPPSRDELTKNQVSLSCAVKGFYPSDIAVEWESNGQPENNYKTTPPVLDSDGSFFLVSKLTVDKSRWQQGNVFSCSVMHEALHNAYTQKSLSLSPGK
notes: tied by description; also called <IgF-1R> IgG1 knob wt, hole I253A, H310A, H435A; anti-IGF-1R antibody, one chain with I253A/H310A/H435A
How did the “retention time on FcRn affinity column” value [1] turn out when B1 was run?
The value was 42 min.

B2: IGF-1R 0035 (antibody, human IgG1, kappa)
light: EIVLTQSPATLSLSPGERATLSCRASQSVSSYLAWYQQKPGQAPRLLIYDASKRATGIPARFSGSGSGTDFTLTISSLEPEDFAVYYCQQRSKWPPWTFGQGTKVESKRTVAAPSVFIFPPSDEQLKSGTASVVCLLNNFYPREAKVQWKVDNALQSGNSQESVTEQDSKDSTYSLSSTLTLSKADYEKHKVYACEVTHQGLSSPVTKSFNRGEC
heavy 1: not shown
heavy 2: QVELVESGGGVVQPGRSQRLSCAASGFTFSSYGMHWVRQAPGKGLEWVAIIWFDGSSTYYADSVRGRFTISRDNSKNTLYLQMNSLRAEDTAVYFCARELGRRYFDLWGRGTLVSVSSASTKGPSVFPLAPSSKSTSGGTAALGCLVKDYFPEPVTVSWNSGALTSGVHTFPAVLQSSGLYSLSSVVTVPSSSLGTQTYICNVNHKPSNTKVDKKVEPKSCDKTHTCPPCPAPELLGGPSVFLFPPKPKDTLMISRTPEVTCVVVDVSHEDPEVKFNWYVDGVEVHNAKTKPREEQYNSTYRVVSVLTVLAQDWLNGKEYKCKVSNKALPAPIEKTISKAKGQPREPQVCTLPPSRDELTKNQVSLSCAVKGFYPSDIAVEWESNGQPENNYKTTPPVLDSDGSFFLVSKLTVDKSRWQQGNVFSCSVMHEALANHATQKSLSLSPGK
notes: also called <IGF-1R> IgG1 knob wt, hole H310A, H433A, Y436A; IGF-1R 0035 (with HHY-AAA mutation in one Fc-region polypeptide)
How did the “retention time on FcRn affinity column” value [1] turn out when B2 was run?
The value was 42.4 min.

B3: IGF-1R 0036 (antibody, human IgG1, kappa)
light: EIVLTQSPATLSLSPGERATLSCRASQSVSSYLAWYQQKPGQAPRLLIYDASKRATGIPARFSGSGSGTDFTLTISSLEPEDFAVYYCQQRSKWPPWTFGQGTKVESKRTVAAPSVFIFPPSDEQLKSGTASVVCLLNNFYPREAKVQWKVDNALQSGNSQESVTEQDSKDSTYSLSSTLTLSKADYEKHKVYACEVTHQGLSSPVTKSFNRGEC
heavy 1: not shown
heavy 2: QVELVESGGGVVQPGRSQRLSCAASGFTFSSYGMHWVRQAPGKGLEWVAIIWFDGSSTYYADSVRGRFTISRDNSKNTLYLQMNSLRAEDTAVYFCARELGRRYFDLWGRGTLVSVSSASTKGPSVFPLAPSSKSTSGGTAALGCLVKDYFPEPVTVSWNSGALTSGVHTFPAVLQSSGLYSLSSVVTVPSSSLGTQTYICNVNHKPSNTKVDKKVEPKSCDKTHTCPPCPAPELLGGPSVFLFPPKPKDTLYITREPEVTCVVVDVSHEDPEVKFNWYVDGVEVHNAKTKPREEQYNSTYRVVSVLTVLHQDWLNGKEYKCKVSNKALPAPIEKTISKAKGQPREPQVCTLPPSRDELTKNQVSLSCAVKGFYPSDIAVEWESNGQPENNYKTTPPVLDSDGSFFLVSKLTVDKSRWQQGNVFSCSVMHEALHNHYTQKSLSLSPGK
notes: tied by description; also called <IGF-1R> IgG1 knob wt, hole M252Y, S254T, T256E; anti-IGF-1R antibody, one chain with M252Y/S254T/T256E
With B3 as the binder, how does the “retention time on FcRn affinity column” value [1] read?
The value was 57.6 min.

B4: IGF-1R 0037 (antibody, human IgG1, kappa)
light: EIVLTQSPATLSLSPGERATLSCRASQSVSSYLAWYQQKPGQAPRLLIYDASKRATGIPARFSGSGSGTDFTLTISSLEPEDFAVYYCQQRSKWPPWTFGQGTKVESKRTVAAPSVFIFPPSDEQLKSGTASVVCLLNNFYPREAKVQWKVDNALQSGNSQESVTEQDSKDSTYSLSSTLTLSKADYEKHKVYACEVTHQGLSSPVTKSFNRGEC
heavy 1: not shown
heavy 2: QVELVESGGGVVQPGRSQRLSCAASGFTFSSYGMHWVRQAPGKGLEWVAIIWFDGSSTYYADSVRGRFTISRDNSKNTLYLQMNSLRAEDTAVYFCARELGRRYFDLWGRGTLVSVSSASTKGPSVFPLAPSSKSTSGGTAALGCLVKDYFPEPVTVSWNSGALTSGVHTFPAVLQSSGLYSLSSVVTVPSSSLGTQTYICNVNHKPSNTKVDKKVEPKSCDKTHTCPPCPAPELLGGPSVFLFPPKPKDTDMISRTPEVTCVVVDVSHEDPEVKFNWYVDGVEVHNAKTKPREEQYNSTYRVVSVLTVLHQDWDNGKEYKCKVSNKALPAPIEKTISKAKGQPREPQVCTLPPSRDELTKNQVSLSCAVKGFYPSDIAVEWESNGQPENNYKTTPPVLDSDGSFFLVSKLTVDKSRWQQGNVFSCSVMHEADHNHYTQKSLSLSPGK
notes: tied by description; also called <IGF-1R> IgG1 knob wt, hole L251D, L314D, L432D; anti-IGF-1R antibody, one chain with L251D/L314D/L432D
For B4, which “retention time on FcRn affinity column” value [1] is on record?
The value was 40.9 min.

B5: YTE-mutant of anti-IGF-1R antibody (antibody, human IgG1, kappa)
light: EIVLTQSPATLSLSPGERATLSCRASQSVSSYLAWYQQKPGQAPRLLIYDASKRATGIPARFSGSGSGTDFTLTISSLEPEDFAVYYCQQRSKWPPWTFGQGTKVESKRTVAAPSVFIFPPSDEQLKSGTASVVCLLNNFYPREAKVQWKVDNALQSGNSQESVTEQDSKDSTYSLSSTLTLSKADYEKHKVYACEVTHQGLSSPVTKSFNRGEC
heavy: QVELVESGGGVVQPGRSQRLSCAASGFTFSSYGMHWVRQAPGKGLEWVAIIWFDGSSTYYADSVRGRFTISRDNSKNTLYLQMNSLRAEDTAVYFCARELGRRYFDLWGRGTLVSVSSASTKGPSVFPLAPSSKSTSGGTAALGCLVKDYFPEPVTVSWNSGALTSGVHTFPAVLQSSGLYSLSSVVTVPSSSLGTQTYICNVNHKPSNTKVDKKVEPKSCDKTHTCPPCPAPELLGGPSVFLFPPKPKDTLYITREPEVTCVVVDVSHEDPEVKFNWYVDGVEVHNAKTKPREEQYNSTYRVVSVLTVLHQDWLNGKEYKCKVSNKALPAPIEKTISKAKGQPREPQVYTLPPSRDELTKNQVSLTCLVKGFYPSDIAVEWESNGQPENNYKTTPPVLDSDGSFFLYSKLTVDKSRWQQGNVFSCSVMHEALHNHYTQKSLSLSPG
notes: IgG1; also called <IGF-1R> IgG1 with M252Y, S254T, T256E; anti-IGF-1R IgG1 with YTE mutation
Does B5 bind [2]?
Result: binds
